According to article doi:10.1101/757856, “Biochemical and structural analysis reveals the Neurofibromin (NF1) protein forms a high-affinity dimer” (bioRxiv, 2019):
One block for each binder: values may come before it.

Legend:
[1] = target: T1, Neurofibromin EF fragment (1821-2818, purified) (human, UniProt P21359-2 1821-2818); test: SEC; equimolar mixtures of purified NF1 fragments run on SEC; fractions analysed by SDS-PAGE for co-elution; settings: both partners purified
T1 construct: Neurofibromin, human NF1 isoform 2 (NM_000267.3), residues 1821-2818 (domains E and F); expected molar mass 111 kDa; also called EF domain; C-terminal EF domain; source: baculovirus-based insect cell system, purified; not shown: His6-MBP, N-terminal, cleaved
T1 sequence (looked up): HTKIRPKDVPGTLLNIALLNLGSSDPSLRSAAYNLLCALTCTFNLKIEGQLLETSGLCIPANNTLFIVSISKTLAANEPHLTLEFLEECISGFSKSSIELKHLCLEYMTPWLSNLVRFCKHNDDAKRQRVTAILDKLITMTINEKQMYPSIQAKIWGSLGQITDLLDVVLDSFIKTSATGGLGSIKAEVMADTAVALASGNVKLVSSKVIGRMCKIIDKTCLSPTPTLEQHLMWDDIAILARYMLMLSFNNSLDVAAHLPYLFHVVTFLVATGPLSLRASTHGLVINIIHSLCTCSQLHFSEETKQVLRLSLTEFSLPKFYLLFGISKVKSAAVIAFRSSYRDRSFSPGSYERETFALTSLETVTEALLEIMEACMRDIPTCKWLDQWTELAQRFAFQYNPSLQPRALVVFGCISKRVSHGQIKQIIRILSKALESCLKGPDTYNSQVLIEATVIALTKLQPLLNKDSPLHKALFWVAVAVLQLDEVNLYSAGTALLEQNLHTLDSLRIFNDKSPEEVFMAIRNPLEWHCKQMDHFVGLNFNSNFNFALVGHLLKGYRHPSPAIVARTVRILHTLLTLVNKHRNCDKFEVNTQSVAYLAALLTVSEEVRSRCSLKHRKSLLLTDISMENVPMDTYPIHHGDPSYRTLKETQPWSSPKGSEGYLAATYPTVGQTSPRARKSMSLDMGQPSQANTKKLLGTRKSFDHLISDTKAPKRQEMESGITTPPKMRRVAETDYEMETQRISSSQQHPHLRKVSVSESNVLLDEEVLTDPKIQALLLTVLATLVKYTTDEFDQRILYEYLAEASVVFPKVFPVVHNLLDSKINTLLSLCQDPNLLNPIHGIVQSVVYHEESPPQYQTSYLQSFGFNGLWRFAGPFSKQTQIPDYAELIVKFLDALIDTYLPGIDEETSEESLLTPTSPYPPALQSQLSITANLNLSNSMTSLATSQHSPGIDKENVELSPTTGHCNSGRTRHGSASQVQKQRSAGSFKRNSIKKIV

[2] = target: T2, Neurofibromin DEF fragment (1541-2818, purified) (human, UniProt P21359-2 1541-2818); test: as above; settings: both partners purified
T2 construct: expected molar mass 144 kDa; also called DEF domain; carboxy-terminal DEF; source: baculovirus-based insect cell system, purified; not shown: His6-MBP, N-terminal, cleaved

binding result [1]: binds
B1: Neurofibromin C*D domain (1085-1816) (domain or fragment, human, UniProt P21359-2 1085-1816, looked up)
chain: LQPEEGDGVELMEAKSQLFLKYFTLFMNLLNDCSEVEDESAQTGGRKRGMSRRLASLRHCTVLAMSNLLNANVDSGLMHSIGLGYHKDLQTRATFMEVLTKILQQGTEFDTLAETVLADRFERLVELVTMMGDQGELPIAMALANVVPCSQWDELARVLVTLFDSRHLLYQLLWNMFSKEVELADSMQTLFRGNSLASKIMTFCFKVYGATYLQKLLDPLLRIVITSSDWQHVSFEVDPTRLEPSESLEENQRNLLQMTEKFFHAIISSSSEFPPQLRSVCHCLYQVVSQRFPQNSIGAVGSAMFLRFINPAIVSPYEAGILDKKPPPRIERGLKLMSKILQSIANHVLFTKEEHMRPFNDFVKSNFDAARRFFLDIASDCPTSDAVNHSLSFISDGNVLALHRLLWNNQEKIGQYLSSNRDHKAVGRRPFDKMATLLAYLGPPEHKPVADTHWSSLNLTSSKFEEFMTRHQVHEKEEFKALKTLSIFYQAGTSKAGNPIFYYVARRFKTGQINGDLLIYHVLLTLKPYYAKPYEIVVDLTHTGPSNRFKTDFLSKWFVVFPGFAYDNVSAVYIYNCNSWVREYTKYHERLLTGLKGSKRLVFIDCPGKLAEHIEHEQQKLPAATLALEEDLKVFHNALKLAHKDTKVSIKVGSTAVQVTSAERTKVLGQSVFLNDIYYASEIEEICLVDENQFTLTIANQGTPLTFMHQECEAIVQSIIHIRTRWELSQPD
notes: C* constructs have an altered start site within the C domain; source: purified; not shown: His6-MBP, N-terminal, cleaved

binding result [2]: binds
binding result [1]: binds
B2: Neurofibromin C* domain (1085-1530) (domain or fragment, human, UniProt P21359-2 1085-1530, looked up)
chain: LQPEEGDGVELMEAKSQLFLKYFTLFMNLLNDCSEVEDESAQTGGRKRGMSRRLASLRHCTVLAMSNLLNANVDSGLMHSIGLGYHKDLQTRATFMEVLTKILQQGTEFDTLAETVLADRFERLVELVTMMGDQGELPIAMALANVVPCSQWDELARVLVTLFDSRHLLYQLLWNMFSKEVELADSMQTLFRGNSLASKIMTFCFKVYGATYLQKLLDPLLRIVITSSDWQHVSFEVDPTRLEPSESLEENQRNLLQMTEKFFHAIISSSSEFPPQLRSVCHCLYQVVSQRFPQNSIGAVGSAMFLRFINPAIVSPYEAGILDKKPPPRIERGLKLMSKILQSIANHVLFTKEEHMRPFNDFVKSNFDAARRFFLDIASDCPTSDAVNHSLSFISDGNVLALHRLLWNNQEKIGQYLSSNRDHKAVGRRPFDKMATLLAYLGPPEH
notes: source: purified; not shown: His6-MBP, N-terminal, cleaved
